According to paper PMC12999518 (Nature Structural & Molecular Biology, 2026):

B1: Gtr1 (natural protein, yeast, UniProt Q00582 1-310, looked up)
chain: MSSNNRKKLLLMGRSGSGKSSMRSIIFSNYSAFDTRRLGATIDVEHSHLRFLGNMTLNLWDCGGQDVFMENYFTKQKDHIFQMVQVLIHVFDVESTEVLKDIEIFAKALKQLRKYSPDAKIFVLLHKMDLVQLDKREELFQIMMKNLSETSSEFGFPNLIGFPTSIWDESLYKAWSQIVCSLIPNMSNHQSNLKKFKEIMNALEIILFERTTFLVICSSNGENSNENHDSSDNNNVLLDPKRFEKISNIMKNFKQSCTKLKSGFKTLILNNNIYVSELSSNMVCFIVLKDMNIPQELVLENIKKAKEFFQ
B2: Gtr2 (natural protein, yeast, UniProt P53290 1-341, looked up)
chain: MSLEATDSKAMVLLMGVRRCGKSSICKVVFHNMQPLDTLYLESTSNPSLEHFSTLIDLAVMELPGQLNYFEPSYDSERLFKSVGALVYVIDSQDEYINAITNLAMIIEYAYKVNPSINIEVLIHKVDGLSEDFKVDAQRDIMQRTGEELLELGLDGVQVSFYLTSIFDHSIYEAFSRIVQKLIPELSFLENMLDNLIQHSKIEKAFLFDVNSKIYVSTDSNPVDIQMYEVCSEFIDVTIDLFDLYKAPVLRNSQKSSDKDNVINPRNELQNVSQLANGVIIYLRQMIRGLALVAIIRPNGTDMESCLTVADYNIDIFKKGLEDIWANARASQAKNSIEDDV
B3: Npr2 (natural protein, yeast (endogenous, TB50 background), UniProt P39923 1-615, looked up)
chain: MLSYFQGFVPIHTIFYSVFHPTEGSKIKYEFPPNNLKNHGINFNTFKNYIIPKPILCHKLITFKYGTYRIVCYPVTINSPIYARNFFSFNFVFVFPYDCETSPYEPAITRLGKMFKVLEEQNQLLSKSERDPVFFDLKVLENSTTTPSTAGPSSTPNPSSNTTPTHPTSEKDTKDMRSSRYSDLIKDLGLPQSAFSIQDLLMRIFQDLNNYSECLIPIDEGNAVDIKIFPLLRPPTTCVSLEDVPLSSVNLKKIIDVNWDPTMMSIVPYIDGLNSIAKISKLSNSDPGLVIECIRHLIYYKCVTLSDIFQFSNIYAPSSLIRNFLTDPLMASDCQSYVTFPEVSKISNLPLNKSLGSGDQDSPSFSVRRKSKSSSIPSNPDSRTTSFSSTSRVSQNSSLNSSFSSIYKDWRQSQTSCSSSNIHVINNRNRFLPTRSCLFDLYRSLSQGQTLKTWYESKYMILKENNIDIRRFITFGLEKRIIYRCYSFPVMINAGSREPKEMTPIITKDLVNNDKLLEKRNHNHLLSATGSRNTAQSGNLKPERPSKVSFEMQRVSSLATGKSTMPKLSDEEEGILEESIRNAETFDKICVLLSKPKLEVESYLNELGEFKVINS

Experiments:
Assay in all cases: cryo-EM structure
Gtr2 = target: B2
Npr2 = target: B3
Sea1 = Sea1 (yeast (endogenous, TB50 background), UniProt P47170 1-1584)
Sea3 = target: T1, Sea3 (yeast (endogenous, TB50 background), UniProt Q03897 1-1148)
T1 sequence (looked up): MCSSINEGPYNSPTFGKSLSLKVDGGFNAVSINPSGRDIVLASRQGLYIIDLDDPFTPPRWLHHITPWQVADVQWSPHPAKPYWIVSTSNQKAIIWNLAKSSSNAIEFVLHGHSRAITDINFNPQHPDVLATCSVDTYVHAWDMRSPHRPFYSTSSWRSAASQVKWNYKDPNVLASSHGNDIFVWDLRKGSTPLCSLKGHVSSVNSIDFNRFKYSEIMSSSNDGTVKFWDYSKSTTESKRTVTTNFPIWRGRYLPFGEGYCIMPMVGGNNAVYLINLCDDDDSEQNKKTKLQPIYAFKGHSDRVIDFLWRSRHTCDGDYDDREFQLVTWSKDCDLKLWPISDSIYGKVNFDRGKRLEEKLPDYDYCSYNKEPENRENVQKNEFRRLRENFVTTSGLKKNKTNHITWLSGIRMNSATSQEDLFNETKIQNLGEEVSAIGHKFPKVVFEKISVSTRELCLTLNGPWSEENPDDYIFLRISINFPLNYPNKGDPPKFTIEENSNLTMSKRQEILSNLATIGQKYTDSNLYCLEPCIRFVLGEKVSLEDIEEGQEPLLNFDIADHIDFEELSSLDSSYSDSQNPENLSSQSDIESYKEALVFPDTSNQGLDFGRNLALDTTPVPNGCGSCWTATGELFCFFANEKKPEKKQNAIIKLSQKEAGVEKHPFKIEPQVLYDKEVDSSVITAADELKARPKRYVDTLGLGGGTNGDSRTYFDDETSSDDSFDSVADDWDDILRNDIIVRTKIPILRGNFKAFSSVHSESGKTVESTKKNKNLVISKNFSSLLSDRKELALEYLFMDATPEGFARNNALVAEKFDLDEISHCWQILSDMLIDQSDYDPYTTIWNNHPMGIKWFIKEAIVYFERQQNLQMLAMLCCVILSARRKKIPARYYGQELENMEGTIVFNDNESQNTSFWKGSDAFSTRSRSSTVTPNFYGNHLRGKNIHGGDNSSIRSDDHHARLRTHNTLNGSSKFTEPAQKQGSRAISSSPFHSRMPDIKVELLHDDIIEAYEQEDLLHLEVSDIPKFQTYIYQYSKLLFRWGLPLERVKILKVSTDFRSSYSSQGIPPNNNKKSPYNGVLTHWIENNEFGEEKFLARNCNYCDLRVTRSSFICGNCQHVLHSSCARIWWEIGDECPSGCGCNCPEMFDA

Sequence of Sea1 (P47170 whole entry): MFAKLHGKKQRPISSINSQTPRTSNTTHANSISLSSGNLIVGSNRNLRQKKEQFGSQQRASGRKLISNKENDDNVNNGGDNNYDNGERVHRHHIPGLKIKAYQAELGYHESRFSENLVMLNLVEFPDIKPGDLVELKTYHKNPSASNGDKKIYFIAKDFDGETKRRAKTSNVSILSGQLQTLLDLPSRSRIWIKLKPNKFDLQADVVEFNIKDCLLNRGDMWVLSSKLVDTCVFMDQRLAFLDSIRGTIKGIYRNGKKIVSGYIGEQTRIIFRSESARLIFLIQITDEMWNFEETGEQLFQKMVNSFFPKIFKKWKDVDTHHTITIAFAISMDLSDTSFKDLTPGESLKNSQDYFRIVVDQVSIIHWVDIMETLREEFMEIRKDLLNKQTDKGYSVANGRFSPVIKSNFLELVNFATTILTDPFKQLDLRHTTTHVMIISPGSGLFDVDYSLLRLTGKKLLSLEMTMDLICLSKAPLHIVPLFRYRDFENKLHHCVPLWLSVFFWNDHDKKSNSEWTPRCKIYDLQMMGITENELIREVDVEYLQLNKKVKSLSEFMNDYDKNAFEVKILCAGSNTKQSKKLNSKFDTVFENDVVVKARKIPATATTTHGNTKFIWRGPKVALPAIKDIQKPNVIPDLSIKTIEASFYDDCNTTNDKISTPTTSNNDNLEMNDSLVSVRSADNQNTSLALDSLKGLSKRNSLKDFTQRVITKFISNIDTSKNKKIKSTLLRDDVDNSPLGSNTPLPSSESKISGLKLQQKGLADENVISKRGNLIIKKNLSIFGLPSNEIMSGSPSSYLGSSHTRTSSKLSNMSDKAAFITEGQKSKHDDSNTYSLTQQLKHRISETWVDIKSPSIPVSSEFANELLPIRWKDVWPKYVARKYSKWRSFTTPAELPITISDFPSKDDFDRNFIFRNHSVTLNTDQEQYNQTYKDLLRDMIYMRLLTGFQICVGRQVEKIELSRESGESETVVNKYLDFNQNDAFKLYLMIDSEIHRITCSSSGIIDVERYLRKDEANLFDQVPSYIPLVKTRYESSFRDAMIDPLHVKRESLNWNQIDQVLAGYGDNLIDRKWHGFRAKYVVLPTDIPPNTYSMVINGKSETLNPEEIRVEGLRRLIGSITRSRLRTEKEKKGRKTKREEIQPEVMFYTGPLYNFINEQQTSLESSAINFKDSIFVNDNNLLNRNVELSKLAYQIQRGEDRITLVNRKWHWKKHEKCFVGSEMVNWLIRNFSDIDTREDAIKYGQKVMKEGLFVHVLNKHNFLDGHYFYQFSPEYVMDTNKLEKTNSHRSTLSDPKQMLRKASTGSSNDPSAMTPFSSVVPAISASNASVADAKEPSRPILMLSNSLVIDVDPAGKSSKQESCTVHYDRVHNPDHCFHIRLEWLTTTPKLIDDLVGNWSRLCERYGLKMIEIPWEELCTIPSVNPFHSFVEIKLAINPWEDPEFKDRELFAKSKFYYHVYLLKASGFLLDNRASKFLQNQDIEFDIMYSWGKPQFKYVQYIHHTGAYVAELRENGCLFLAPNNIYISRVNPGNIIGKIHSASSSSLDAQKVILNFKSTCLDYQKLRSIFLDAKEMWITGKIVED

Binder: B1
- binding result (Gtr2): binds
- binding result (Npr2): binds

Binder: B2
- binding result (Sea1): binds

Binder: B3
- binding result (Sea3): binds
